Reference: paper PMC10940770, “Loss of function and reduced levels of sphingolipid desaturase DEGS1 variants are both relevant in disease mechanism” (Journal of Lipid Research, 2024)
Residue numbers refer to the chain shown, from its start. Numbers in names are those of the source.

B1: DEGS1 (Homo sapiens) (protein)
chain: GSRVSREDFEWVYTDQPHADRRREILAKYPEIKSLMKPDPNLIWIIIMMVLTQLGAFYIVKDLDWKWVIFGAYAFGSCINHSMTLAIHEIAHNAAFGNCKAMWNRWFGMFANLPIGIPYSISFKRYHMDHHRYLGADGVDVDIPTDFEGWFFCTAFRKFIWVILQPLFYAFRPLFINPKPITYLEVINTVAQVTFDILIYYFLGIKSLVYMLAASLLGLGLHPISGHFIAEHYMFLKGHETYSYYGPLNLLTFNVGYHNEHHDFPNIPGKSLPLVRKIAAEYYDNLPHYNSWIKVLYDFVMDDTISPYSRMKRHQKGEMVLE
notes: full-length cDNA (from Hep3B RNA) in pcDNA3, untagged, transfected into DEGS1-knockout HEK-293T (KO-DES-HEK); cell homogenate with Triton X-100
B2: DEGS1 (Homo sapiens; N255S) (protein)
chain: B1 chain with N254S
notes: as for B1
B3: DEGS1 (Homo sapiens; L175Q) (protein)
chain: B1 chain with L174Q
notes: as for B1
B4: DEGS1 (Homo sapiens; N189D) (protein)
chain: B1 chain with N188D
notes: as for B1
B5: DEGS1 (Homo sapiens; A280V) (protein)
chain: B1 chain with A279V
notes: as for B1
B6: DEGS2 (Homo sapiens) (protein)
chain: GNSASRSDFEWVYTDQPHTQRRKEILAKYPAIKALMRPDPRLKWAVLVLVLVQMLACWLVRGLAWRWLLFWAYAFGGCVNHSLTLAIHDISHNAAFGTGRAARNRWLAVFANLPVGVPYAASFKKYHVDHHRYLGGDGLDVDVPTRLEGWFFCTPARKLLWLVLQPFFYSLRPLCVHPKAVTRMEVLNTLVQLAADLAIFALWGLKPVVYLLASSFLGLGLHPISGHFVAEHYMFLKGHETYSYYGPLNWITFNVGYHVEHHDFPSIPGYNLPLVRKIAPEYYDHLPQHHSWVKVLWDFVFEDSLGPYARVKRVYRLAKDGL
notes: full-length cDNA (from colon mucosa RNA) in pcDNA3, transfected into DEGS1-knockout HEK-293T (KO-DES-HEK); cell homogenate with Triton X-100

What was measured:
[1] = substrate: CCCCCCCCCCCCCCC[C@@H](O)[C@H](CO)NC(=O)CCCCCCCCCCCC; assay: LC-MS/MS of C13-Cerd7 formed; Hanes-Woolf plot; format: biochemical, Homo sapiens; conditions: 0.2 M Tris/HCl pH 7, 0.2% Triton X-100, 1 mM NADPH, 37°C, deuterated substrate
Text: LC-MS/MS of C13-Cerd7 formed; Hanes-Woolf plot on DEGS1

[2] = substrate: CCCCCCCCCCCCCCC[C@@H](O)[C@H](CO)NC(=O)CCCCCCCCCCCC; assay: LC-MS/MS of C13-Cerd7 formed; Hanes-Woolf plot; format: biochemical, Homo sapiens; conditions: homogenate of transfected KO-DES-HEK (80 μg, 30 min) plus 100 μg KO-DES-HEK homogenate, 0.2 M Tris/HCl pH 7, 0.2% Triton X-100, 1 mM NADPH, 37°C, deuterated substrate
Text: LC-MS/MS of C13-Cerd7 formed; Hanes-Woolf plot on DEGS2

[3] = homogenate of transfected KO-DES-HEK (80 μg, 30 min) plus 100 μg KO-DES-HEK homogenate

Protein | Km [1, 3] | other results
B1 |  | Km ([1]; homogenate of transfected KO-DES-HEK (40 μg, 10 min) plus 100 μg KO-DES-HEK homogenate): 2.41 µM
B2 | 4.34 µM | 
B3 | 5.99 µM | 
B4 | 2.75 µM | 
B5 | 3.29 µM | 
B6 |  | Km [2]: 15.31 µM
